Experimental data taken from patent publication US20070231897A1, “Induction of Insulin Secreting Cell” (KYOTO UNIVERSITY, priority 2004, published 2007).

Tested on: pancreatic acinar cells
Assay: Effect of growth factors on insulin-positive cell induction in main culture of pancreatic acinar cells
Assay type: cell-based, mouse
Settings: day 7 of culture; EGF 20 ng/ml, HGF, FGF7 and FGF10 10 ng/ml, GLP-1 30 ng/ml; rank among growth factors (FIG. 8B)
Protocol: Eight-week old male mice (C57B1/6Cr Slc)(Japan SLC, Inc.: Hamamatsu, Japan) were anesthetized with 50 mg/kg of Nembtal (Dainippon Pharma Co., Ltd.: Osaka, Japan) and subjected to laparotomy. The choledoch duct was ligated near the position where it opens to the duodenum. Using a 27G winged needle (Terumo Corporation: Tokyo, Japan), 2-3 ml of Hank's buffer containing 0.05% collagenase P (Roche: Basel, Switzerland) and 10% fetal bovine serum was infused from the liver side. The pancreas, now swollen, was extracted and digested in 5 ml of Hank's buffer per pancreas for 18 minutes at 37° C. The digested pancreas then was made to pass through a 14G indwelling needle in both directions twice to disperse the pancreatic cells, which washed well with Hank's buffer containing 0.1% bovine serum albumin (Sigma: Saint Louis, Mo., USA). The pancreatic cells thus obtained were suspended in a mixed solution (solution A) consisting of 8.3% Ficoll 400 (Amersham Bioscience: Uppsala, Sweden) and 16.7% Conray 400 (Daiichi Pharmaceutical, Tokyo, Japan), and after a 87.5%-diluted solution of solution A and then a 50%-diluted solution of solution A were placed on it in the order, centrifuged (2,000 rpm, 10 min). […]

B1: fibroblast growth factor 10 (protein, UniProt O15520 38-208, looked up)
Fibroblast growth factor 10: QALGQDMVSPEATNSSSSSFSSPSSAGRHVRSYNHLQGDVRWRKLFSFTKYFLKIEKNGKVSGTKKENCPYSILEITSVEIGVVAVKAINSNYYLAMNKKGKLYGSKEFNNDCKLKERIEENGYNTYASFNWQHNGRQMYVALNGKGAPRRGQKTRRKNTSAHFLPMVVHS
notes: fibroblast growth factor 10 (R&D Systems), growth factor added to the culture medium
- proportion of insulin-positive cells: this was followed by FGF10 and HGF
